From patent publication US6558922B1, “Methods and compositions for production of floral scent compounds” (Purdue Research Foundation, priority 1999, dated 2003)
Like-named read-outs stand apart in the source and are kept apart here.

Experiments:
BAMT [1] = biological target: T1, BAMT (Antirrhinum majus, UniProt Q9FYZ9); experiment: BAMT activity with different substrates in lysates of E. coli expressing BAMT cDNA; assay type: biochemical; conditions: lysates of E. coli cells expressing BAMT
T1 construct: The enzyme activity was purified from upper and lower petal lobes of 5- to 10-day-old snapdragon flowers; from tissue; host or cells: upper and lower petal lobes of 5- to 10-day-old snapdragon flowers
T1 sequence (Q9FYZ9 1-364): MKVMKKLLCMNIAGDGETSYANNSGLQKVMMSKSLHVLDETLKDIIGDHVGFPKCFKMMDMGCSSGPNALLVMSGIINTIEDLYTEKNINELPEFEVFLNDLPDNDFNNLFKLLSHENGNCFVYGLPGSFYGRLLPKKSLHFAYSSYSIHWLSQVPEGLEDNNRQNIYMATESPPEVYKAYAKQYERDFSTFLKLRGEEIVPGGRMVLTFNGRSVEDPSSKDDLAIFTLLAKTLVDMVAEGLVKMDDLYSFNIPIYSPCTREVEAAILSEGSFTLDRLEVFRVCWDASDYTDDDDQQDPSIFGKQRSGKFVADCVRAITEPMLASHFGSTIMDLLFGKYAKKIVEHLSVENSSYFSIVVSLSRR
Excerpt: The raw data (counts per minute) were converted to picokatals (picomoles of product produced per second) based on the specific activity of the substrate and efficiency of counting.
(Yamaguchi et al., 1996).

BAMT [2] = biological target: T1, BAMT; experiment: BAMT enzyme assay, substrate specificity of plant-purified BAMT (fraction after MonoQ); assay type: biochemical; conditions: plant BAMT purified through MonoQ, compound tested as substrate instead of benzoic acid
Excerpt: The raw data (counts per minute) were converted to picokatals (picomoles of product produced per second) based on the specific activity of the substrate and efficiency of counting. Controls included assays with boiled protein extracts and without substrate, and background radioactivity produced in such assays was subtracted from all of the results.
The enzyme activity was purified from upper and lower petal lobes of 5- to 10-day-old snapdragon flowers in a series of chromatographic steps involving a DEAE anion exchange column (DE53, Whatman International, Maidstone, England), phenyl Sepharose 6FF (low sub, level of phenyl substitution 20 μmole per ml gel) column (Pharmacia Biotech, Piscataway, N.J.), and another anion exchange column, MonoQ, on Pharmacia's fast-performance liquid chromatography system. A complete description of the purification protocol is described in Example 7.

E. coli BAMT protein = biological target: T2, E. coli BAMT protein (Antirrhinum majus, UniProt Q9FYZ9); experiment: Product inhibition kinetics of methylation reaction by SAH
T2 sequence (Q9FYZ9 1-364): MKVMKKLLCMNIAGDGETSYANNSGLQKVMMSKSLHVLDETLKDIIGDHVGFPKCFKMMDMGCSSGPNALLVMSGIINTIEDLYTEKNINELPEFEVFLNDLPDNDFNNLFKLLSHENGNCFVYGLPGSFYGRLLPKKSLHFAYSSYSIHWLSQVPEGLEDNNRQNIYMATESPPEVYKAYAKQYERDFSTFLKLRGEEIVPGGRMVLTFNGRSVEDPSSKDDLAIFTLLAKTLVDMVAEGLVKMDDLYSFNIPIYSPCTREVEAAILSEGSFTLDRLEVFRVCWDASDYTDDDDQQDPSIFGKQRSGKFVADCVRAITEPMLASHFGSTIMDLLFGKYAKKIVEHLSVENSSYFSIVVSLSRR
Excerpt: Linear regressions were fitted to the data in double-reciprocal plots. Replots of the data were used to determine the kinetic parameters.

BAMT [3] = experiment: Effectors: BAMT enzyme assay with cations in assay buffer; assay type: biochemical, Antirrhinum majus; conditions: for Stimulation of BAMT activity (factor): cation at 5 mM in assay buffer
BAMT [4] = system: BAMT
Procedure: The optimum pH for BAMT activity was determined using two buffer systems. Reactions were carried out in 50 mM Tris-HCl buffer with pH ranging from 6.5 to 9.0 and in 50 mM Tris/Na phosphate/Na citrate buffer with pH ranging from 4.0 to 9.5. Final results are an average of four independent assays.

BAMT [5] = experiment: Kinetic properties of purified plant and E. coli expressed BAMT proteins; assay type: biochemical, Antirrhinum majus; conditions: purified protein; for KmSAM: Table 4
BAMT [6] = biological target: T1, BAMT; experiment: Specific activity of BAMT purified from snapdragon petals; assay type: biochemical; conditions: from 25 g fresh petal material after Mono-Q
Procedure: After the enzyme was loaded, the column was washed with 3 mL 300 mM KCl in buffer A and eluted with a linear reverse gradient (4 mL) from 300 mM KCl in buffer A to water followed by an additional 11 mL of water. Fractions of 0.7 ml were collected into tubes containing 100 μL 1 M KCl, 100 μL glycerol, 100 μL of 0.5 M Bis-Tris-HCl, pH 6.9 and 1 μL of 14 M β-mercaptoethanol. […] The column was previously equilibrate with 100 mM KCl in buffer A. After loading the protein onto the column, the column was washed with 100 mM KCl in buffer A and the bound protein was eluted using a 10 mL linear (100-400 mM) gradient of KCl in buffer A followed by an additional 5 mL of buffer A containing 400 mM KCl, at flow rate of 0.25 mL/min. The enzyme consistently eluted at about 360 mM KCl. Fractions (0.5 mL each) were collected and protein content and purity were examined by SDS-PAGE gel electrophoresis followed by staining of the gel with Coomassie Brilliant Blue. Fractions which had the largest amount of pure protein were used for N-terminal sequencing, internal peptide sequencing, and initial enzyme characterization.

SAMT = biological target: T3, SAMT (Clarkia breweri, UniProt Q9SPV4); conditions: Ross et al., 1999, cited from earlier work
T3 sequence (Q9SPV4 1-359): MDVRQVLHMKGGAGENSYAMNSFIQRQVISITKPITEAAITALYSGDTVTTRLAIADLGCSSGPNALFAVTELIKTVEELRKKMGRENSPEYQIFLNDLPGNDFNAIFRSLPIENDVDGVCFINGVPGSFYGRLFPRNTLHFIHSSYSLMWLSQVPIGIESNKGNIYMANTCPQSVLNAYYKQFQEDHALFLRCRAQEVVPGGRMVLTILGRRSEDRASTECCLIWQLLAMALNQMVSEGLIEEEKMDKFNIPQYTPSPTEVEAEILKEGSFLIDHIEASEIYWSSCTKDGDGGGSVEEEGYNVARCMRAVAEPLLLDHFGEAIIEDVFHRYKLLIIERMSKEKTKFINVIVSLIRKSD

[7] = biological target: the molecule itself; experiment: gel filtration on Superdex 200-HR (100 kDa native) against SDS-PAGE (49 kDa subunit)
BAMT [8] = experiment: Specific activity of plant BAMT expressed in E. coli BL21 (DE3) cells
Procedure: The E. coli.-expressed BAMT protein was purified by nickel-based affinity chromatography (2.5 ml bed volume) according to the manufacturer's protocol (Novagen, Inc).

BAMT [9] = conditions: read-out: Km of plant BAMT protein for benzoic acid; Murfitt, et al., 2000; cited from earlier work
[10] = read-out: KmBA (Km for benzoic acid)

## O=C(O)c1ccccc1O [salicylic acid]
BAMT [1]
  BAMT activity with compound as substrate: no activity
BAMT [2]
  BAMT activity with compound as substrate: no activity was detected

## O=C(O)/C=C/c1ccccc1O [2-coumaric acid]
BAMT [2]
  BAMT activity with compound as substrate: no activity was detected

## O=C(O)c1cccc(O)c1 [3-hydroxybenzoic acid]
BAMT [2]
  BAMT activity with compound as substrate: no activity was detected

## Nc1ncnc2c1ncn2[C@@H]1O[C@H](CSCC[C@H](N)C(=O)O)[C@@H](O)[C@H]1O [SAH, S-adenosyl-L- homocysteine]
E. coli BAMT protein; Ki value of SAH for BA, noncompetitive with respect to BA, SAM fixed at 150 μM
  Ki: 14 µM
E. coli BAMT protein; Ki value of SAH for SAM, competitive with respect to SAM, BA fixed at 4 mM
  Ki: 7 µM

## [K+] [K^+]
BAMT [3]
  Stimulation of BAMT activity (factor): 2

## O=C(O)/C=C/c1cccc(O)c1 [3-coumaric acid]
BAMT [2]
  BAMT activity with compound as substrate: no activity was detected

## O=C(O)c1ccc(O)cc1 [4-hydroxybenzoic acid]
BAMT [2]
  BAMT activity with compound as substrate: no activity was detected

## N [NH4^+]
BAMT [3]
  Stimulation of BAMT activity (factor): 2

## O=C(O)/C=C/c1ccc(O)cc1 [4-coumaric acid]
BAMT [2]
  BAMT activity with compound as substrate: no activity was detected

## OCc1ccccc1 [benzyl alcohol]
BAMT [2]
  BAMT activity with compound as substrate: no activity was detected
BAMT [2]; listed as benzylalcohol
  BAMT activity with compound as substrate: no activity

## [Mg+2] [Mg^2+]
BAMT [3]; 5 mM Mg2+ in the assay reaction
  Effect on BAMT activity: not affected

## O=C(O)/C=C/c1ccccc1 [trans-cinnamic acid]
BAMT [1]
  BAMT activity with compound as substrate: no activity
BAMT [2]
  BAMT activity with compound as substrate: no activity was detected

## S-adenosyl-L-methionine:benzoic acid carboxyl methyltransferase [BAMT]
BAMT [4]; at both pH 6.5 and 8.5
  Percent of maximum activity: 65%
BAMT [4]; at pH 5.5 and 9.5
  Enzyme activity as percent of the optimal value: about 50%
BAMT [5]; read-out: Km for SAM
  Km: 28 µM
BAMT [5]; [10]
  Km: 1100 µM
BAMT [6]
  Specific activity of purified BAMT protein: 327 pkat/mg protein

B1: SAM:salicylic acid carboxyl methyl transferase (protein, listed as Clarkia breweri)
chain: MDVRQVLHMKGGAGENSYAMNSFIQRQVISITKPITEAAITALYSGDTVTTRLAIADLGCSSGPNALFAVTELIKTVEELRKKMGRENSPEYQIFLNDLPGNDFNAIFRSLPIENDVDGVCFINGVPGSFYGRLFPRNTLHFIHSSYSLMWLSQVPIGIESNKGNIYMANTCPQSVLNAYYKQFQEDHALFLRCRAQEVVPGGRMVLTILGRRSEDRASTECCLIWQLLAMALNQMVSEGLIEEEKMDKFNIPQYTPSPTEVEAEILKEGSFLIDHIEASEIYWSSCTKDGDGGGSVEEEGYNVARCMRAVAEPLLLDHFGEAIIEDVFHRYKLLIIERMSKEKTKFINVIVSLIRKSD
notes: salicylic acid carboxyl methyl transferase from C. breweri
SAMT; read-out: Km value for BA
  Km: 190 µM
SAMT; read-out: Km value for SA
  Km: 24 µM
SAMT; read-out: Km value for SAM
  Km: 9 µM

B2: S-adenosyl-L-methionine:benzoic acid carboxyl methyltransferase (BAMT) from snapdragon (Antirrhinum majus) petals (enzyme)
chain: MKVMKKLLCMNIAGDGETSYANNSGLQKVMMSKSLHVLDETLKDIIGDHVGFPKCFKMMDMGCSSGPNALLVMSGIINTIEDLYTEKNINELPEFEVFLNDLPDNDFNNLFKLLSHENGNCFVYGLPGSFYGRLLPKKSLHFAYSSYSIHWLSQVPEGLEDNNRQNIYMATESPPEVYKAYAKQYERDFSTFLKLRGEEIVPGGRMVLTFNGRSVEDPSSKDDLAIFTLLAKTLVDMVAEGLVKMDDLYSFNIPIYSPCTREVEAAILSEGSFTLDRLEVFRVCWDASDYTDDDDQQDPSIFGKQRSGKFVADCVRAITEPMLASHFGSTIMDLLFGKYAKKIVEHLSVENSSYFSIVVSLSRR
notes: Native protein from upper and lower petal lobes; The native enzyme is reported as a homodimer (100 kDa by gel filtration, 49 kDa on SDS-PAGE); In the immunoblots it was the denatured monomer after SDS-PAGE; also called BAMT protein; plant BAMT
[7]
  binding result: binds

B3: E. coli Met1: E. coli expressed snapdragon BAMT starting with the first methionine codon, N-terminal 6×His tag (protein, UniProt Q9FYZ9 1-364, looked up)
chain: MKVMKKLLCMNIAGDGETSYANNSGLQKVMMSKSLHVLDETLKDIIGDHVGFPKCFKMMDMGCSSGPNALLVMSGIINTIEDLYTEKNINELPEFEVFLNDLPDNDFNNLFKLLSHENGNCFVYGLPGSFYGRLLPKKSLHFAYSSYSIHWLSQVPEGLEDNNRQNIYMATESPPEVYKAYAKQYERDFSTFLKLRGEEIVPGGRMVLTFNGRSVEDPSSKDDLAIFTLLAKTLVDMVAEGLVKMDDLYSFNIPIYSPCTREVEAAILSEGSFTLDRLEVFRVCWDASDYTDDDDQQDPSIFGKQRSGKFVADCVRAITEPMLASHFGSTIMDLLFGKYAKKIVEHLSVENSSYFSIVVSLSRR
modifications: full-length N-terminal 6xHis tag
BAMT [5]
  Vmax: 300 pkat/mg
  kcat (turnover number of enzyme): 0.03 s⁻¹
  KmSAM: 87 μm
BAMT [5]; read-out: Km for SAM
  Km: 87 µM
BAMT [5]; [10]
  Km: 1500 µM
BAMT [8]; E. coli BL21 (DE3) after IPTG induction
  Specific activity, crude lysates: 9 pkat/mg protein
BAMT [8]; purified from E. coli
  Specific activity of purified recombinant enzyme: 135 pcat/mg protein
BAMT [8]; purified from E. coli on nickel column
  Specific activity, purified protein: 135 pkat/mg protein

B4: Plant: BAMT protein purified from upper and lower petal lobes of snapdragon flowers (protein)
chain: MKVMKKLLCMNIAGDGETSYANNSGLQKVMMSKSLHVLDETLKDIIGDHVGFPKCFKMMDMGCSSGPNALLVMSGIINTIEDLYTEKNINELPEFEVFLNDLPDNDFNNLFKLLSHENGNCFVYGLPGSFYGRLLPKKSLHFAYSSYSIHWLSQVPEGLEDNNRQNIYMATESPPEVYKAYAKQYERDFSTFLKLRGEEIVPGGRMVLTFNGRSVEDPSSKDDLAIFTLLAKTLVDMVAEGLVKMDDLYSFNIPIYSPCTREVEAAILSEGSFTLDRLEVFRVCWDASDYTDDDDQQDPSIFGKQRSGKFVADCVRAITEPMLASHFGSTIMDLLFGKYAKKIVEHLSVENSSYFSIVVSLSRR
BAMT [9]
  Km: 1 mM
BAMT [5]
  Vmax: 220 pkat/mg
  kcat (turnover number of enzyme): 0.02 s⁻¹
  KmSAM: 28 μm
BAMT [5]; read-out: Km for SAM
  Km: 28 µM
BAMT [5]; [10]
  Km: 1100 µM
